Reference: the supplement of paper PMC10567573

B1: SPATS1 (parent)
chain: YPEQSKGFHKAGSMLPPVNFSIVP
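Further: lentivirally expressed fusions sorted by FACS into six bins by GFP to DsRed ratio, PSI derived from sequencing read proportions per bin multiplied by bin number.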

Variants of: B1
Experiment: protein stability index of a GFP-peptide fusion (GPS, HEK-293T) (PSI 1-6); higher = more stable
Settings: c terminus: a fixed tail appended
Variant YPEQSKGFHKAGSSLPPVNFSIVP [M14S] has a protein stability index of 2.17.
For YPEQSKGFHKAGSYLPPVNFSIVP [M14Y], the protein stability index was 2.
Work on YPEQSKGFHKAGSALPPVNFSIVP [M14A] yielded a protein stability index of 2.13.
Work on YPEQSKGFHKAGSELPPVNFSIVP [M14E] yielded a protein stability index of 1.88.
For YPEQSKGFHKAGSRLPPVNFSIVP [M14R], the protein stability index was 2.8.
In the case of YPEQSKGFHKAGSHLPPVNFSIVP [M14H], the protein stability index is reported as 1.87.
Variant YPEQSKGFHKAGSLLPPVNFSIVP [M14L] has a protein stability index of 1.74.
Variant YPEQSKGFHKAGSFLPPVNFSIVP [M14F] has a protein stability index of 2.28.
Variant YPEQSKGFHKAGSPLPPVNFSIVP [M14P] has a protein stability index of 2.07.
YPEQSKGFHKAGSGLPPVNFSIVP [M14G] showed a protein stability index of 1.97.
Variant YPEQSKGFHKAGSTLPPVNFSIVP [M14T] has a protein stability index of 1.99.
Variant YPEQSKGFHKAGSNLPPVNFSIVP [M14N] has a protein stability index of 2.37.
Work on YPEQSKGFHKAGSILPPVNFSIVP [M14I] yielded a protein stability index of 1.83.
YPEQSKGFHKAGSDLPPVNFSIVP [M14D] showed a protein stability index of 1.96.
Variant YPEQSKGFHKAGSKLPPVNFSIVP [M14K] has a protein stability index of 2.47.
With YPEQSKGFHKAGSVLPPVNFSIVP [M14V] the protein stability index was 2.03.
Work on YPEQSKGFHKAGSWLPPVNFSIVP [M14W] yielded a protein stability index of 1.91.
Work on YPEQSKGFHKAGSCLPPVNFSIVP [M14C] yielded a protein stability index of 2.25.
YPEQSKGFHKAGSQLPPVNFSIVP [M14Q] gave a protein stability index of 2.08.
With YPEQSKGFHKAGWMLPPVNFSIVP [S13W] the protein stability index was 2.1.
In the case of YPEQSKGFHKAGHMLPPVNFSIVP [S13H], the protein stability index is reported as 1.9.
With YPEQSKGFHKAGGMLPPVNFSIVP [S13G] the protein stability index was 1.85.
YPEQSKGFHKAGDMLPPVNFSIVP [S13D] gave a protein stability index of 2.17.
YPEQSKGFHKAGPMLPPVNFSIVP [S13P] showed a protein stability index of 1.88.
Work on YPEQSKGFHKAGEMLPPVNFSIVP [S13E] yielded a protein stability index of 2.24.
With YPEQSKGFHKAGFMLPPVNFSIVP [S13F] the protein stability index was 1.97.
For YPEQSKGFHKAGTMLPPVNFSIVP [S13T], the protein stability index was 1.7.
With YPEQSKGFHKAGKMLPPVNFSIVP [S13K] the protein stability index was 1.95.
With YPEQSKGFHKAGAMLPPVNFSIVP [S13A] the protein stability index was 1.68.
In the case of YPEQSKGFHKAGMMLPPVNFSIVP [S13M], the protein stability index is reported as 1.69.
Variant YPEQSKGFHKAGRMLPPVNFSIVP [S13R] has a protein stability index of 2.15.
Variant YPEQSKGFHKAGVMLPPVNFSIVP [S13V] has a protein stability index of 1.67.
YPEQSKGFHKAGNMLPPVNFSIVP [S13N] showed a protein stability index of 2.13.
Variant YPEQSKGFHKAGQMLPPVNFSIVP [S13Q] has a protein stability index of 1.97.
YPEQSKGFHKAGLMLPPVNFSIVP [S13L] gave a protein stability index of 1.88.
YPEQSKGFHKAGCMLPPVNFSIVP [S13C] showed a protein stability index of 1.73.
YPEQSKGFHKAGIMLPPVNFSIVP [S13I] showed a protein stability index of 1.74.
For YPEQSKGFHKAGYMLPPVNFSIVP [S13Y], the protein stability index was 1.78.
For YPEQSKGFHKAGSMCPPVNFSIVP [L15C], the protein stability index was 2.05.
YPEQSKGFHKAGSMGPPVNFSIVP [L15G] gave a protein stability index of 1.58.
In the case of YPEQSKGFHKAGSMEPPVNFSIVP [L15E], the protein stability index is reported as 2.37.
YPEQSKGFHKAGSMDPPVNFSIVP [L15D] showed a protein stability index of 2.29.
With YPEQSKGFHKAGSMFPPVNFSIVP [L15F] the protein stability index was 1.84.
Work on YPEQSKGFHKAGSMAPPVNFSIVP [L15A] yielded a protein stability index of 1.63.
Work on YPEQSKGFHKACSMLPPVNFSIVP [G12C] yielded a protein stability index of 2.75.
YPEQSKGFHKAASMLPPVNFSIVP [G12A] showed a protein stability index of 1.76.
YPEQSKGFHKAMSMLPPVNFSIVP [G12M] gave a protein stability index of 1.7.
Work on YPEQSKGFHKAKSMLPPVNFSIVP [G12K] yielded a protein stability index of 1.98.
With YPEQSKGFHKALSMLPPVNFSIVP [G12L] the protein stability index was 2.24.
With YPEQSKGFHKAFSMLPPVNFSIVP [G12F] the protein stability index was 1.64.
YPEQSKGFHKADSMLPPVNFSIVP [G12D] showed a protein stability index of 2.08.
In the case of YPEQSKGFHKAPSMLPPVNFSIVP [G12P], the protein stability index is reported as 2.
Work on YPEQSKGFHKASSMLPPVNFSIVP [G12S] yielded a protein stability index of 1.84.
With YPEQSKGFHKAESMLPPVNFSIVP [G12E] the protein stability index was 1.95.
With YPEQSKGFHKARSMLPPVNFSIVP [G12R] the protein stability index was 2.26.
Work on YPEQSKGFHKANSMLPPVNFSIVP [G12N] yielded a protein stability index of 1.94.
In the case of YPEQSKGFHKAQSMLPPVNFSIVP [G12Q], the protein stability index is reported as 1.66.
In the case of YPEQSKGFHKAISMLPPVNFSIVP [G12I], the protein stability index is reported as 1.49.
Variant YPEQSKGFHKAHSMLPPVNFSIVP [G12H] has a protein stability index of 1.94.
For YPEQSKGFHKAWSMLPPVNFSIVP [G12W], the protein stability index was 2.08.
With YPEQSKGFHKAYSMLPPVNFSIVP [G12Y] the protein stability index was 2.64.
For YPEQSKGFHKATSMLPPVNFSIVP [G12T], the protein stability index was 2.04.
With YPEQSKGFHKAVSMLPPVNFSIVP [G12V] the protein stability index was 1.79.
With YPEQSKGFHKKGSMLPPVNFSIVP [A11K] the protein stability index was 2.15.
YPEQSKGFHKMGSMLPPVNFSIVP [A11M] showed a protein stability index of 1.84.
YPEQSKGFHKPGSMLPPVNFSIVP [A11P] gave a protein stability index of 2.19.
Work on YPEQSKGFHKQGSMLPPVNFSIVP [A11Q] yielded a protein stability index of 2.17.
In the case of YPEQSKGFHKGGSMLPPVNFSIVP [A11G], the protein stability index is reported as 1.98.
YPEQSKGFHKLGSMLPPVNFSIVP [A11L] gave a protein stability index of 1.55.
For YPEQSKGFHKNGSMLPPVNFSIVP [A11N], the protein stability index was 1.81.
With YPEQSKGFHKWGSMLPPVNFSIVP [A11W] the protein stability index was 1.82.
YPEQSKGFHKVGSMLPPVNFSIVP [A11V] gave a protein stability index of 1.67.
YPEQSKGFHKYGSMLPPVNFSIVP [A11Y] gave a protein stability index of 1.74.
With YPEQSKGFHKDGSMLPPVNFSIVP [A11D] the protein stability index was 2.29.
With YPEQSKGFHKFGSMLPPVNFSIVP [A11F] the protein stability index was 2.1.
Work on YPEQSKGFHKSGSMLPPVNFSIVP [A11S] yielded a protein stability index of 1.78.
For YPEQSKGFHKTGSMLPPVNFSIVP [A11T], the protein stability index was 1.83.
Variant YPEQSKGFHKIGSMLPPVNFSIVP [A11I] has a protein stability index of 2.7.
For YPEQSKGFHKEGSMLPPVNFSIVP [A11E], the protein stability index was 2.78.
Variant YPEQSKGFHKHGSMLPPVNFSIVP [A11H] has a protein stability index of 2.21.
Variant YPEQSKGFHKRGSMLPPVNFSIVP [A11R] has a protein stability index of 2.33.
In the case of YPEQSKGFHKCGSMLPPVNFSIVP [A11C], the protein stability index is reported as 2.03.
Work on YPEQSKGFHLAGSMLPPVNFSIVP [K10L] yielded a protein stability index of 2.88.
In the case of YPEQSKGFHMAGSMLPPVNFSIVP [K10M], the protein stability index is reported as 1.93.
YPEQSKGFHWAGSMLPPVNFSIVP [K10W] gave a protein stability index of 3.61.
YPEQSKGFHYAGSMLPPVNFSIVP [K10Y] showed a protein stability index of 2.15.
YPEQSKGFHSAGSMLPPVNFSIVP [K10S] gave a protein stability index of 1.91.
YPEQSKGFHIAGSMLPPVNFSIVP [K10I] gave a protein stability index of 1.7.
In the case of YPEQSKGFHQAGSMLPPVNFSIVP [K10Q], the protein stability index is reported as 1.9.
Work on YPEQSKGFHNAGSMLPPVNFSIVP [K10N] yielded a protein stability index of 2.
In the case of YPEQSKGFHTAGSMLPPVNFSIVP [K10T], the protein stability index is reported as 2.08.
Work on YPEQSKGFHPAGSMLPPVNFSIVP [K10P] yielded a protein stability index of 2.
YPEQSKGFHRAGSMLPPVNFSIVP [K10R] gave a protein stability index of 2.47.
Work on YPEQSKGFHVAGSMLPPVNFSIVP [K10V] yielded a protein stability index of 1.76.
